Consider 1 protein from article PMC11150526, “Pseudomonas aeruginosa gene PA4880 encodes a Dps-like protein with a Dps fold, bacterioferritin-type ferroxidase centers, and endonuclease activity” (Frontiers in Molecular Biosciences, 2024).

Series [1] deals with the molecule itself. The series is described as follows: SEC; calibrated Superdex 200 Increase 10/300 GL; 50 mM Tris pH 7.5, 1 mM MgSO4; also run after titration with Fe2+ (0 h and 24 h), and after MgSO4 was added back to disassembled protein (only partial reassembly).
Series [2] deals with the molecule itself. The series is described as follows: crystal structure; Pa DpsL-dimer (also called Pa DpsL-monomer); protein purified without MgSO4; crystals from 8% PEG 6,000, 100 mM MES pH 6.0, 100 mM MgCl2; 1.3 A; one molecule in the asymmetric unit, dimer by crystallographic symmetry (PISA).

B1: Pseudomonas aeruginosa Dps-like protein (product of gene PA4880) (natural protein, Pseudomonas aeruginosa PAO1, UniProt Q9HUT3 1-177, looked up)
chain: MTTVQLTDVQTLRDRARKNIQEGAVTEGYSADRQTVLRLLNEALATELVCFLRYKRHYFMATGLKASIAAAEFLEHANQEMQHADQLAERIMQLGGEPDFNPRGLEERSHAEYVEGKTLKDMVTENLIAERIAIDSYREIITYLGNDDPTTRRIFEEILAQEEEHADDMADILDDLA
notes: Product of gene PA4880 of P. aeruginosa PAO1 (annotated as probable bacterioferritin); The gene was synthesised with silent, codon-optimising mutations and cloned NdeI/BamHI into pET11a; The structures number residues from Met1; No tag is mentioned; As isolated it carries di-iron ferroxidase centres (8-10 Fe per 12-mer); also called Pa DpsL; PaDpsL; source: E. coli BL21-Gold (DE3), pET11a, …
As usually defined, the stoichiometry N is the number of molecules, sites or subunits per partner or assembly. As for B1, the “stoichiometry N” value worked out at 12 in series [1] and 2 in series [2].
